Test results from the nanobody polyreactivity screen of Harvey et al. (2022).

Experiment: yeast display, Sf9 membrane polyspecificity reagent, FACS + sequencing; frameworks hold sequencing errors
Summary of the method: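 Synthetic nanobody libraries on Saccharomyces cerevisiae BJ5465 were galactose-induced for 36–48 hours, stained 1 hour at 4 °C with 10% biotinylated, detergent-solubilized Sf9 membrane reagent and enriched on streptavidin microbeads. FACS then separated cells into low and high (top ~1%) gates by anti-HA (expression) and streptavidin (reagent binding) fluorescence. Genes were colony-PCR amplified, MiSeq 2 × 250 sequenced and CDR-length filtered. A clone's polyreactivity label is that of its gate of origin.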
For “QVQLVESGGGLVQAGGSLRLSCAASGSIFGIYAMGWYRQAPGKERELVAAIDSSGTSTYYADSVKGRFTISRDNAKNTVYLQMNSLKPEDTAVYYCAAYHRISKNNYLGQGTQVTVSS”, the “polyreactivity (PSR sort gate)” value was “low polyreactivity”. With “QVQLVESGGGLVQAGGSLRLSCAASGFTFPDNAMGWYRQAPGKERELVAAITTSGGRTYYADSVKGRFTISRDNAKNTVYLQMNSLKPEDTAVYYCARPSRRTGREYGYWGQGTQVTVSS” the “polyreactivity (PSR sort gate)” value was “high polyreactivity”. With “QVHLVESGGGLVQAGGSLRLSCAASGRIFRQYAMGWYRQAPGKERELVAAISYSGGSTYYADSVKGRFTISRDYAKNTVYFQMNSLKPEDTAVYYCAATRWVPATGKFGYWGQGTQVTVSS” the “polyreactivity (PSR sort gate)” value was “high polyreactivity”. In the case of “QVQLVESGGGLVQAGGSLRISCAASGFTFYRYAMGWYRQAPGKERELVAAISSDGTTYNADSVKGRFTISRDNAKNTVYLQINSLKPEDNAVYYCAKRGYYRSRRYDYWGQGTQVNVSS”, the “polyreactivity (PSR sort gate)” value is reported as “high polyreactivity”. In the case of “QVQLVESGGGLVQAGGSLRLSCAASGSTFYKYAMGWYRQAPGKERELVAVITDGGSTTYADSVKGRFTISRDNAKNTVYLQMNSLKPEDTAVYYCAADYYLRKTRFESWGQGTQVTVSS”, the “polyreactivity (PSR sort gate)” value is reported as “low polyreactivity”. With “QVQLVESGGGLVQAGGSLRLSCAASGFTFVYYVMGWYRQAPGKERELVAAINAGGGSTYYADSVKGRFTISRDNAKNTVYLQMNSLKPEDTAVYYCNARVRVRLGRNWSSYDYWGQGSQVTVSS” the “polyreactivity (PSR sort gate)” value was “high polyreactivity”. With “QVQLVESGGGLVHAGGSLRLSCAASGRTFATYAMGWYRQAPGKERELVAAITSGGSTYYADSVKGRFTISRDNAKNTVYLQMNSLKPEDTAVYYCAADLSTYRRGFDYWGQGTHVTVSS” the “polyreactivity (PSR sort gate)” value was “high polyreactivity”. With “QVQLVETGGGLVQAGGSLRISCAASGIIYVDNVMGSYRQAPGKERELVAAIDYSGGSTYYADSVKGRFTISRDNAKNNVYFQMNSLKPEDTAVYYCHARTYYGYGMDYWGQGTQVTVSS” the “polyreactivity (PSR sort gate)” value was “low polyreactivity”. In the case of “QVQLVESGGCLVQAGGSLRLSCAPSGFIFPYYAMGWYRPAPGQERALVAAITSSGGSTYYADSVKGRFTISRDNAKNTVYLQMNSLKPEETAVYYCNKYRRYVDGYEMDYWGQGTQVTVSS”, the “polyreactivity (PSR sort gate)” value is reported as “high polyreactivity”. With “QVQLVESGGGLVQAGGSLRLSCAASGSTFVVNAMGWYRQAPGKEREFVAAITWNGGSTYADSVKGRFTISRDNAKNTVYLQMNSLKPEDTAVYYCSADLSYWDDFDYWGQGTQVTVSS” the “polyreactivity (PSR sort gate)” value was “low polyreactivity”. With “QVQLVESGGGLVQAGGSLRLSCDASGRTLDVNARGWYRQAPGKERELVAAISYSGGITYYADSVKGRFTISRDNAKNTVYLQMNRLKPEDTAVYYCAVVGGYPSYTVDYWGKGTQVTVSS” the “polyreactivity (PSR sort gate)” value was “low polyreactivity”. In the case of “QVQHVESGGGLVQAGGSLRLSCAASGSIFASYAMGWYRLAAGKERELVAAISRRAVLTYYADSVKGRFTISRDNPKNTVYLQMNSLKPEDTAVYFCNARGYSGYQRYGYNYWGQGTQVTVSS”, the “polyreactivity (PSR sort gate)” value is reported as “high polyreactivity”. For “QDQLVESGGGLVQAGGSLRLSCAASGRTFAYNAMGWYRQAPGKERELVADITSGGSTYYADSVKGRFTIARDNAKNKVYLQMNSLKPEDTAVYYCAAYTQFWYWDYNYWGQGTQVTVSS”, the “polyreactivity (PSR sort gate)” value was “high polyreactivity”. With “QVQLVESGGGLVQAGGSLRLSCAASGLTFWTNTMGWSRQAPGKERELVATISSGGGTYYADSVKGRFTISRDNAKNTVYLQMNSLKPEDTAVYYCAAKRKRYFVGYYYWGQGTQVTVSS” the “polyreactivity (PSR sort gate)” value was “low polyreactivity”. In the case of “QVQLVESGGGLVQAGGSLRLSCAASGSTFFYNAMGWYRQAPGKERELVAAMSLSGGSITYYADSVKGRFTISRDNANNTVYLQMNSLKPEDTAVYYCAADSQATSYGLDYWGQGTQVTVSS”, the “polyreactivity (PSR sort gate)” value is reported as “low polyreactivity”. With “QVQLVESGGGLVQAGGSLRLSCAASGSIFRTYAMGWYRQAPGKESELVAAISRSGSSTYYADSVKGRFTISRDNAKNTVYLQRTSLQPEDTAVYYCAAYWPLSYGARGSNYWGQGTQVTVSS” the “polyreactivity (PSR sort gate)” value was “high polyreactivity”. In the case of “QVQLVESGGGLVQAGGSLRLSCAASGYTFSRYAMGWYRQAPGKERELVADISRSGGSTDYADSVKGRFTISRDNAKNTVYLQMNSLKPEDTAVYYCAKGSWWGYYSYGFDYWGQGTQVTVSS”, the “polyreactivity (PSR sort gate)” value is reported as “high polyreactivity”. In the case of “QVQLVESGGGLVQAGGSLRLSCAASGSTFYYNAMGWYRQAPGKEREFVAAITYTGGSTDYADSVKGRFTISRDNAKNTVYLQMNSLKPEDTAVYYCAKGTYGYISTWYDYWGQGTQVTVSS”, the “polyreactivity (PSR sort gate)” value is reported as “low polyreactivity”. For “QVQLVESGGGLVQAGGSLRLSCAASGFTFKHYAMGWYRQATGKERELVATITRGGSTNYADSVKGRFTISRDNAKNTVYLQMNSLKPEDSAVYYCAAADYVRYPFTRGYIYQGYDYWGQGTQVTVSS”, the “polyreactivity (PSR sort gate)” value was “low polyreactivity”. With “QVQLVESGGGLVHAGGSLRLSCAASGITFVYYAMGWYRQAPGKERELVAAIDDTGTTYYADSVKGRFTISRDNAKNTVYLQMNSLKPEDTAVYYCAADDWGWFFGGGDYWGQGTQVTVSS” the “polyreactivity (PSR sort gate)” value was “high polyreactivity”. For “QVQLVESGGGLVQAGGSLRLSCAASGRTFWWNAMAWYTQAPGKERELVAVISKRGGTTYYADSVKGRFTNSRDNAKNTVYLPMNSLKPEDTAVYVFAADQQSHYGYWGQGTQVTVSS”, the “polyreactivity (PSR sort gate)” value was “high polyreactivity”. For “QVQLVESGGGLVQAGGSLRLSCAASGSIFWFYGMGWYRQAPGKERELVAAISWSGGNTYADSVKGRFTISRDNAKNTVYVQMNSLKPEDTAVYYCNAVVRAYYTSIWVPRYDYWGQGTQVTVSS”, the “polyreactivity (PSR sort gate)” value was “high polyreactivity”. In the case of “QVQLVESGGGLVQAGGTLRLSCAASGSIFYRYDMGWYRPAPGKERELVAAITWSGGSTYYADSVKGRFTISRDNAKNTVYLQMNSLKPEDTAVYYCNAPGDGYLYDHTYDYWGQGTQVTVSS”, the “polyreactivity (PSR sort gate)” value is reported as “low polyreactivity”. In the case of “QVQLVESGGGLVQAGGSLRLSCAASGFTFDHNAMGWYRQAPGKERELVARITGTGDSTYYADSVKGRFTISRDNAKKTVYLQMNSLNPEDSADYYCNADRRYDFYDGYGYWGQGTQVTVSS”, the “polyreactivity (PSR sort gate)” value is reported as “low polyreactivity”. For “QVQLVESGGGLVQAGGSLRLSCAASGFTFGYYGMGWYRQAPGKVRELVAAINWSGVNTNYADSVKGRFTISRDNAKNTVYLQMNSLKPEDTAVYYCAADAGYDGYGYWGQGTQVTVSS”, the “polyreactivity (PSR sort gate)” value was “low polyreactivity”. With “QVQLVESGGGLVQAGGSHRLSCAASGSNAMGWYRQAHGKERELVAVITGGGSTHYADSVKGRYTISRDNAKNTVYLLMNSLKAEVTAVYYCAAVYWHSRGKFADIAVDYWGQGTQVTVSS” the “polyreactivity (PSR sort gate)” value was “low polyreactivity”. For “QVQLVESGGGLVQAGGSLRLSCAASGSIIYHYAWGWYRQAPGQERELVDAITRCGGSTYYADSVKGRFTISRDNAKNTVYLQMHSLKPEDTAVYYCAREAGRYAYKYYWWQRTDYDYGGQGTQVTVSS”, the “polyreactivity (PSR sort gate)” value was “low polyreactivity”. For “QVQLVESGGGLVQAGGSLRLSCAASGSIFYQYAMGWYRQAPGKERELVARITWSSGSTYYADSVKGRFTISRDNAKNTVYLQMNSLKPEDTAVYYCNVVYTGTSYIYYYWGQGTQVTVSS”, the “polyreactivity (PSR sort gate)” value was “high polyreactivity”. With “QVQLVESGGGLVQAGGSLRLSFAASGFIFYRNTMGWYRQAPGKERELVAGITSGGRTNYADSVKGRFTISRDNAKNTVYLQMNSLKPEYTAVYYCNRVVYTYISTGSRHGRYNYWGQGTQVTVSS” the “polyreactivity (PSR sort gate)” value was “high polyreactivity”. In the case of “QVQLVESGGGLVQAGGSLRLSCAASGRTFSGYVMGWYRQAPGKERELVATINGSGASTYYADSVKGRFTISRDNAKNTVYLQMNSLKPEDTAVYYCNKYPAHYQTRRYDYWGQGTQVTVSS”, the “polyreactivity (PSR sort gate)” value is reported as “high polyreactivity”. In the case of “QVQLVESGGGLVQAGGSLRLSCAASGITIAGYAMGWYRQAPGKERELVAAISSRGSSTRYADSVKGRFTISRDNAKNTVYLQMNSLKPEDSAVYYCAARNEYWGQGTQVTVSS”, the “polyreactivity (PSR sort gate)” value is reported as “high polyreactivity”. With “QVQLVESGGGLVQAGGSLRLSCAASGRIFKKNAMGWYRQAPGKERELVADINWTGGSTYYADSVKGRFTISRDYAKNTVDLQMNSLKPEDTAVYYCAVGVYPSYRGTTFSTRRDYWGQGTQVTVSS” the “polyreactivity (PSR sort gate)” value was “low polyreactivity”. With “QVQLVESGGGLVQAGGSLRLSCAASGRIFERYAMGWYRQAPGKERELVAAISYRGGRTYYADSVKGRFTISRDNAKNTVYLQMNSLKPEDTAVYYCAAVEVRRVADYGFGLLDYWGQGSQVTVSS” the “polyreactivity (PSR sort gate)” value was “high polyreactivity”. With “QVQLVESGGGLVQAGGSLRLSCAASGSIFPYYAMGWYRQAPGKERELVAAISGSGGSTYYADSVKGRFTISRDNAKNTVYLQLNSLKPVDTAVYYCATADVYVYWYTSTDDYWGQGTQVTVSS” the “polyreactivity (PSR sort gate)” value was “low polyreactivity”. In the case of “QVQLVESGGGLVQAGRSLRLSCAASGRTFGGNAMGWYRQAPGKERELVAAIDQSGGSTYYADSVKGRFTISRDNAKNTVYLQMNSLKPEDTAVYYCATHDGGTYYVREPNVKYDYWGQVTQVTVSS”, the “polyreactivity (PSR sort gate)” value is reported as “low polyreactivity”. With “QVQLVESGGGLVQAGGSLRLSCAASGRTFDVYAMGWDRQAPGKERELVAASTSGGSTYYADSVKGRFTISRDNAKNTVYLQMNSLKPEDTAVYYCATDVDKSLYDYWGQGTQVTVSS” the “polyreactivity (PSR sort gate)” value was “low polyreactivity”. For “QVQLVESGGGLVQAGGSLRLSCAASGSTFGINAMGWYRQAPGKERELVAVIRAGGGRTYYADSVKGRFTISRDNAKNTVYLQMNSLKPEDTAVYYCAARYYSRYVSVYASSKTGYDYWGQGTQVTVSS”, the “polyreactivity (PSR sort gate)” value was “high polyreactivity”. For “QVQLVESGGGLVQAGGSHRLSCASSGSTFLPNAMGWYRQPPGKERELVAAITNSGGNTYADSVKGRFTISRDNAKNTVYLEMNSLKPEDTAVYYCNARFSPTGWARGNDYWGQGTQVTVSS”, the “polyreactivity (PSR sort gate)” value was “low polyreactivity”. With “QVQLVESGGGLVQAGGSLRLSCAASGRIFRLYALGWDRQAPGKERELVATITSGGTYYADSVKGRFTISRDNAKNTVYLQMNSLKPEDTAVYYCAAHSGSTYKYWGQGTQVTVSS” the “polyreactivity (PSR sort gate)” value was “low polyreactivity”. With “QVQLVESGGGLVQAGGSLRLSFAASGSTFGLNAMGWYRQAPGKERELVAAITRSDITNYADSVKGRFTISRDNAKNTVYLQMNSLKPEDTAVYYCNKTPDRHRRYFGYGYWGQGTQVTVSS” the “polyreactivity (PSR sort gate)” value was “low polyreactivity”.
